Among the data in paper doi:10.1101/2020.09.29.318733 are stoichiometry N values, retold here.

One assay concerns the target Kohinoor. In words: SEC.
The target of a further assay is Padron. The assay is described as follows: SEC.

In the case of Kohinoor, the stoichiometry N in the assay with Kohinoor was 2.

In the assay with Padron, Padron had a stoichiometry N of 4.

As usually defined, the stoichiometry N is a count of units in the complex or per binding partner.
